# Data: article PMC9680732
# Target: singly biotinylated A20 zinc finger 4 (ZnF4: S592-K635) (human) (UniProt P21580)
# Assay: BLI
# Sequence of singly biotinylated A20 zinc finger 4 (ZnF4: S592-K635) (human) (P21580 592-635): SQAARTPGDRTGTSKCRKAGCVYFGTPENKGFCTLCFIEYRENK
substance,measurement,value
K63-linked triubiquitin (from UniProt P0CG48 1-76),Kd,2 µM
